Residue numbers refer to the chain shown, from its start.
B1: SEQ ID NO 170 (designed binder)
chain: MLPAPKNLVVSRVTEDSARLSWTAPDAAFDSFFIGYPEYPATGEAIVLTVPGSERSYDLTGLKPGTEYFVDINGVKGGSLSYPLSAIFTT
notes: FN3 domain
B2: SEQ ID NO 181 (designed binder)
chain: MLPAPKNLVVSHVTEDSARLSWTAPDAAFDSFPIAYAEPRPDGEAIVLTVPGSERSYDLTGLKPGTEYSVLIHGVKGGLLSSPLSAIFTT
notes: FN3 domain
B3: SEQ ID NO 193 (designed binder)
chain: MLPAPKNLVVSRVTEDSARLSWTAPDAAFDSFTIWYAEAVGNGEAIVLTVPGSERSYDLTGLKPGTEYWVDIWGVKGGEFSSPLSAIFTT
notes: FN3 domain
B4: SEQ ID NO 188 (designed binder)
chain: B2 chain with H12R, P33L, A35P, P39T, R40S, D42S, L79K, S82L
notes: FN3 domain
B5: SEQ ID NO 195 (designed binder)
chain: MLPAPKNLVVSRVTEDSARLSWTAPDAAFDSFPIEYDEIPFWGEAIVLTVPGSERSYDLTGLKPGTEYRVWIHGVKGGNSSWPLSAIFTT
notes: FN3 domain
B6: SEQ ID NO 180 (designed binder)
chain: MLPAPKNLVVSRVTEDSARLSWTAPDAAFDSFEISYYEMRGYGEAIVLTVPGSERSYDLTGLKPGTEYSVLIHGVEGGDYSSPLSAISTT
notes: FN3 domain
B7: SEQ ID NO 176 (designed binder)
chain: B2 chain with H12R, L71G, L79H, L80D
notes: FN3 domain
B8: SEQ ID NO 177 (designed binder)
chain: MLPAPKNLVVSRVTEDSARLSWTAPDAAFDSFFIGYLEPQPPGEAIVLTVPGSERSYDLTGLKPGTEYNVTIQGVKGGRASGPLSAIFTT
notes: FN3 domain
B9: SEQ ID NO 179 (designed binder)
chain: B2 chain with H12R, P33Y, S69P, L71P, H73P, L79P, L80G
notes: FN3 domain
B10: SEQ ID NO 187 (designed binder)
chain: MLPAPKNLVVSRVTEDSARLSWTAPDAAFDSFVIEYFEFVGYGEAIVLTVPGSERSYDLTGLKPGTEYSVGIYGVKGGKLSPPLSAIFTT
notes: FN3 domain
B11: SEQ ID NO 183 (designed binder)
chain: MLPAPKNLVVSRVTEDSARLSWTAPDAAFDSFLIPYAETSPSGEAIVLTVPGSERSYDLTGLKPGTEYSVLIHGVKGGRPSNPLVAAFTT
notes: FN3 domain
B12: SEQ ID NO 185 (designed binder)
chain: MLPAPKNLVVSRVTEDSARLSWTAPDAAFDSFEIDYDELAIYGEAIVLTVPGSERSYDLTGLKPGTEYGVMIIGVKGGLPSDPLSAIFTT
notes: FN3 domain
B13: SEQ ID NO 182 (designed binder)
chain: B8 chain with Q40Y, N69V, T71S, R79T, A80P, G82Q
notes: FN3 domain
B14: SEQ ID NO 192 (designed binder)
chain: B8 chain with P25L, R79F, A80P, G82M
notes: FN3 domain
B15: SEQ ID NO 178 (designed binder)
chain: B2 chain with H12R, P33D, R40I, D42R, L79R, L80R, S82V
notes: FN3 domain
B16: SEQ ID NO 175 (designed binder)
chain: B8 chain with N69S, T71V, R79F, A80P, G82D
notes: FN3 domain

Each binder was assayed against T1, recombinant biotinylated CD71 extracellular domain (Sino Biologics) with an N-terminal 6His tag (human, UniProt P02786 89-760, biotinylated (sites not given)) (assay: screening ELISA, ratio).
T1 construct: extracellular domain; also called hCD71; huCD71
T1 sequence (P02786 other isoform, or with tags, fused parts or gaps): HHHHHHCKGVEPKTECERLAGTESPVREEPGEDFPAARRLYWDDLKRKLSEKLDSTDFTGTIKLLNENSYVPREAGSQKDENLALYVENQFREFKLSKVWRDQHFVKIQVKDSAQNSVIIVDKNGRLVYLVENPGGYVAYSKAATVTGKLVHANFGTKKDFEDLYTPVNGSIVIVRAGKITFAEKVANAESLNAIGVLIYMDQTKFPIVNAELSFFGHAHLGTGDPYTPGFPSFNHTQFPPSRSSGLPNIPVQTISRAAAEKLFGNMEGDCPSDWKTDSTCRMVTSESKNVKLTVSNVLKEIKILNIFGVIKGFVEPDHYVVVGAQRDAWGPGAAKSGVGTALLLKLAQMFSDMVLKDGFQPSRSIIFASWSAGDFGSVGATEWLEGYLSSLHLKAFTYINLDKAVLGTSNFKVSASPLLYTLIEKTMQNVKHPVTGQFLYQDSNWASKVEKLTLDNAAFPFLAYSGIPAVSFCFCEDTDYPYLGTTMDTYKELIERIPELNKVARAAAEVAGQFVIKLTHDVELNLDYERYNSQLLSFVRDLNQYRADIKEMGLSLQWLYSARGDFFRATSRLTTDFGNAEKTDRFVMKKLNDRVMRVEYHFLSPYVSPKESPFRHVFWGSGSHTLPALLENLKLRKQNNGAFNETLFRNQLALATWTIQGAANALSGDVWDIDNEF

| hCD71:HSA | Binder |
| --- | --- |
| 58 | B1 |
| 491 | B2 |
| 1550 | B3 |
| 797 | B4 |
| 28 | B5 |
| 50 | B6 |
| 129 | B7 |
| 1060 | B8 |
| 36 | B9 |
| 422 | B10 |
| 161 | B11 |
| 182 | B12 |
| 1060 | B13 |
| 650 | B14 |
| 644 | B15 |
| 2220 | B16 |

What follows are binders tested against T1, recombinant biotinylated CD71 … (assay: screening ELISA).

| hCD71 | Binder |
| --- | --- |
| 982000 | B1 |
| 2.95e+06 | B2 |
| 3.87e+06 | B3 |
| 2.67e+06 | B4 |
| 2.53e+06 | B5 |
| 1.68e+06 | B6 |
| 1.34e+06 | B7 |
| 2.61e+06 | B8 |
| 2.68e+06 | B9 |
| 3.06e+06 | B10 |
| 1.72e+06 | B11 |
| 1.81e+06 | B12 |
| 3.12e+06 | B13 |
| 2.67e+06 | B14 |
| 1.45e+06 | B15 |
| 3.55e+06 | B16 |

Reference: patent US20210145976A1 (ARO BIOTHERAPEUTICS, published 2021)
